EC50 data for 1 substance are collected here from patent US20260204353A1.

This test has as its target - (UniProt P08069). As to the kind of experiment: ELISA. Conditions: scFv. In general terms: ELISA stands for enzyme-linked immunosorbent assay.

As usually defined, the EC50 is the concentration at which the effect is half-maximal. Low readings indicate greater potency, high ones weaker potency.

The substance “Teprotumumab scFv mutant into which the consensus sequences were introduced (H16G, L60D, and L85D)” returned an EC50 of 24 nM.
